The target in this experiment is SARS CoV-2 parental (Wuhan-Hu-1) receptor binding domain (RBD) protein, amino acids 319 to 541 of th (SARS-CoV-2, Wuhan-Hu-1 isolate), P0DTC2. Nature of the experiment: ELISA, antigen coated, chimeric IgG1 titrated, anti-human Fc-HRP. The following applies: remark: other sources report otherwise.

B1: SKD chimeric bovine-human IgG1 (ultralong CDR3) (antibody)
VH: QVQLRESGPSLVKPSQTLSLTCTASGFSLSDKAVGWVRQAPGKALEWLGSIDTGGNTGYNPGLKSRLSITKDNSKSQVSLSVSSVTTEDSATYYCTTVHQRTSEKRSCPGGSSRRYPSGASCDVSGGACACYVSNCRGVLCPTLNEIVAYTYEWHVDAWGQGLLVTVSS
VL: QAVLNQPSSVSGSLGQRVSITCSGSSSNVGNGYVSWYQLIPGSAPRTLIYGDTSRASGVPDRFSGSRSGNTATLTISSLQAEDEADYFCASAEDSSSNAVFGSGTTLTVL
By EC50 is commonly meant the concentration that produces a half-maximal response. Take B1: the EC50 is 0.19 nM.

B2: SKM chimeric bovine-human IgG1 (ultralong CDR3) (antibody)
VH: QVQLRESGPSLVKPSQTLSLTCTASGFSLSDKAVGWVRQAPGKALEWLGSIDTGGNTGYNPGLKSRLSITKDNSKSQVSLSVSSVTTEDSATYYCTTVHQETLRSCPDGYIDNSGCTADWGCAALDCWRRRFGYHSTDPSHYTGATYIYTYSLHIDAWGQGLLVTVSS
VL: B1 VL
As to B2, the concentration giving a half-maximal response (EC50) amounted to 0.24 nM.
